{"source": "paper PMC13431160", "target": "IRE1, ER stress sensor RNase, endogenous in HCT116 cells (human (endogenous in HCT116)) (UniProt O75460)", "sequence (O75460 19-977)": "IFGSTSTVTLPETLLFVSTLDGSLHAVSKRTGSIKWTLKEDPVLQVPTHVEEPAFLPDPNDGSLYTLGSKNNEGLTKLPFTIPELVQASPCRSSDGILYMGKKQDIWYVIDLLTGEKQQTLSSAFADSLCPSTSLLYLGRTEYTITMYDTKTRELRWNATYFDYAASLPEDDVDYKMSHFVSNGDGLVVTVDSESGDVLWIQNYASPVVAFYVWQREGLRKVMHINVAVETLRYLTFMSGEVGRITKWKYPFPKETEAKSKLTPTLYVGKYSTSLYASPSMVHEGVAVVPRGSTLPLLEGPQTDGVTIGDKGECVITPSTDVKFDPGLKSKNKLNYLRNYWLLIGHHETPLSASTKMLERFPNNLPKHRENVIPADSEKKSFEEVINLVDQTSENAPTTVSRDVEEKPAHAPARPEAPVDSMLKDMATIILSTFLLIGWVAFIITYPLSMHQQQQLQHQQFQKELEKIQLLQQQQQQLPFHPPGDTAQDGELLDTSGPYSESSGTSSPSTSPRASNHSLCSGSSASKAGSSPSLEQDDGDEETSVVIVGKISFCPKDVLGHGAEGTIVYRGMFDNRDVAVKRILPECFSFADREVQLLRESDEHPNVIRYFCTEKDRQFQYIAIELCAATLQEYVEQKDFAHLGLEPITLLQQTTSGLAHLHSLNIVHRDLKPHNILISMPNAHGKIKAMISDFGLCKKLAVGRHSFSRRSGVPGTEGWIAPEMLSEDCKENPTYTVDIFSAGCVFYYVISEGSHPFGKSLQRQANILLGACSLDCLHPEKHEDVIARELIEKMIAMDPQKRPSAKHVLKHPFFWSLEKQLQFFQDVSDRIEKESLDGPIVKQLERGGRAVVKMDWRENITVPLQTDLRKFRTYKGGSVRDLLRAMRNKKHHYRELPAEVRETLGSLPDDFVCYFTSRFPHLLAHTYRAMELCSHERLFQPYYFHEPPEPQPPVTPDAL", "assay": "co-IP; endogenous IRE1 immunoprecipitated from HCT116 WT lysate (anti-IRE1 clone B-12 cross-linked to protein G Dynabeads, 3 h at 4°C; 25 mM HEPES pH 7.3, 150 mM NaCl, 0.5% NP-40); cells treated with DMSO or TM 5 µg/mL 4 h; with or without RNase I and RNase T1 in the second wash; Western blot of IGF2BP3", "data": [{"substance": "IGF2BP3 (insulin-like growth factor 2 mRNA-binding protein 3), endogenous in HCT116 cells (from UniProt O00425 1-579) (natural protein)", "values": [{"measurement": "fold change of the interaction after 4 h of ER stress against unstressed controls", "value": 1.6, "unit": "fold"}]}]}
